From patent US20250026839A1 (OSE IMMUNOTHERAPEUTICS, published 2025) come the findings set out here.

Assay [1] deals with Recombinant human TRIM21 protein, TRIM21-his (Sinobiological #18010-H07B) (human) (UniProt P19474). The assay is described as follows: competition ELISA, TRIM21-his coated, antibody in excess (20 µg/ml), competitor biotinylated Fc-CLEC1 in dose response.
Assay [2] has the same target. The assay is described as follows: antagonist assay of FIG. 6A against a control antibody; format not stated; competitor CLEC-1.
The target in assay [3] is T1, Recombinant human TRIM21 protein, TRIM21-his (Sinobiological #18010-H07B) (human, UniProt P19474 1-475).
T1 construct: Bought, produced in baculovirus; coated on ELISA plates or immobilised on a CM5 chip; not shown: his tag
The experiment in a line: ELISA, TRIM21-his coated, biotinylated His-CLEC1 in dose response, streptavidin-peroxidase.

The target of assay [4] is T1, Recombinant human TRIM21 protein, …. The experiment in a line: ELISA, TRIM21-his coated, biotinylated Fc-CLEC1 in dose response, streptavidin-peroxidase. The text has this:
(§1) Plate was saturated with superblock buffer (#37515, Thermofisher).

In assay [5] the target is T2, endogenous TRIM21 from whole cell extracts (RAJI, MoDC, HPB-ALL cells) (human, UniProt P19474 1-475).
T2 construct: Endogenous cellular protein of human cell lines and monocyte derived dendritic cells, not a recombinant construct; also called TRIM21 E3 Ubiquitin-protein Ligase; cellular endogenous TRIM-21
The experiment in a line: co-immunoprecipitation from RAJI whole cell extract, anti-TRIM21 Western blot (FIG. 3A); supernatant not depleted of TRIM21 (FIG. 3B). The text has this:
FIG. 3: Co-immunoprecipitation of TRIM21 with CLEC-1A.
The experiment was repeated using Monocyte derived Dendritic Cells (MoDC) protein extracts as starting endogenous protein mix.

Assay [6] addresses T1, Recombinant human TRIM21 protein, …. The experiment in a line: ELISA, TRIM21-his coated, biotinylated Fc in dose response (FIG. 4A).
Excerpt: as §1

Sequence of Recombinant human TRIM21 protein, TRIM21-his (Sinobiological #18010-H07B) (human) (P19474 whole entry): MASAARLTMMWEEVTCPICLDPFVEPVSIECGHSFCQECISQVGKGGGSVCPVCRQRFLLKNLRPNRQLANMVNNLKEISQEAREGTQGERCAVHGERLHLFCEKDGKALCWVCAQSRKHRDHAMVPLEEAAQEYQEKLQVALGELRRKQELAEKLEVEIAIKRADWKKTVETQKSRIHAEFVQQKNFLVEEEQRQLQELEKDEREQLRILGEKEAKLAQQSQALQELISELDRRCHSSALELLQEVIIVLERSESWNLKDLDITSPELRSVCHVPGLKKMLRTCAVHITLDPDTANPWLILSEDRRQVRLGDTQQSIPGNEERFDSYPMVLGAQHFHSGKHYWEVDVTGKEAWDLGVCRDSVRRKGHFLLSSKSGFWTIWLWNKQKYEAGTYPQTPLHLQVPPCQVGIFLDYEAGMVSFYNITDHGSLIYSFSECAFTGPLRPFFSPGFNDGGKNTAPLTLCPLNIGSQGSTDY
T1 sequence (P19474 whole entry): as above
T2 sequence (P19474 whole entry): as above

For the molecule anti-TRIM21 antibody PA5-18147 (Fisher), the percent decrease of the Fc-CLEC1/TRIM21 interaction in assay [1] was 50%.

Consider anti-TRIM21 antibody Fisher PA5-22295, for which the percent reduction of the binding between CLEC-1 and TRIM21 in assay [2] was 65%.

With “anti-TRIM21 antibody PA5-22294 (Fisher / Invitrogen)”, in assay [1], the percent decrease of the Fc-CLEC1/TRIM21 interaction came out at 50%.

With “anti-TRIM21 antibody sc-25351 (Santacruz)”, the percent decrease of the Fc-CLEC1/TRIM21 interaction in assay [1] came out at 50%.

With “anti-TRIM21 antibody MAB62191 (Biotechne)”, the percent decrease of the Fc-CLEC1/TRIM21 interaction in assay [1] amounted to 50%.

For the molecule “anti-TRIM21 antibody MAB6219 (Biotechne)”, the percent decrease of the Fc-CLEC1/TRIM21 interaction in assay [1] amounted to 50%.

B1: His-CLEC1 (Biotechne #1704-CL) (receptor)
chain: QYYQLSNTGQDTISQMEERLGNTSQELQSLQVQNIKLAGSLQHVAEKLCRELYNKAGAHRCSPCTEQWKWHGDNCYQFYKDSKSWEDCKYFCLSENSTMLKINKQEDLEFAASQSYSEFFYSYWTGLLRPDSGKAWLWMDGTPFTSELFHIIIDVTSPRSRDCVAILNGMIFSKDCKELKRCVCERRAGMVKPESLHVPPETLGEGD
modifications: biotinylated in the ELISA experiments (sites not given)
notes: Bought recombinant protein produced in NS0 cells; also called His-CLEC1A; His-CLEC-1A; not shown: His tag
On to B1, for which the EC50 in assay [3] amounted to 13 µg/mL.

B2: Soluble Clec1-human IgG Fc chimera (Fc-Clec-1) (Fc fusion)
chain: DKTHTCPPCPAPPVAGGPSVFLFPPKPKDTLMISRTPEVTCVVVDVSHEDPEVKFNWYVDGVEVHNAKTKPREEQYNSTYRVVSVLTVLHQDWLNGKEYKCKVSNKGLPSSIEKTISKAKGQPREPQVYTLPPSRDELTKNQVSLTCLVKGFYPSDIAVEWESNGQPENNYKTTPPVLDSDGSFFLYSKLTVDKSRWQQGNVFSCSVMHEALHNHYTQKSLSLSPGKQYYQLSNTGQDTISQMEERLGNTSQELQSLQVQNIKLAGSLQHVAEKLCRELYNKAGAHRCSPCTEQWKWHGDNCYQFYKDSKSWEDCKYFCLSENSTMLKINKQEDLEFAASQSYSEFFYSYWTGLLRPDSGKAWLWMDGTPFTSELFHIIIDVTSPRSRDCVAILNGMIFSKDCKELKRCVCERRAGMVKPESLHVPPETLGEGD
modifications: biotinylated in the ELISA experiments (sites not given)
notes: domain: Fc; also called Fc-CLEC-1A; Fc-CLEC1A
For the molecule B2, in assay [4], the EC50 was found to be 15 µg/mL.

B3: Fc only (human IgG1-E3 Fc control) (other, UniProt P01857-1 104-330, looked up)
chain: DKTHTCPPCPAPPVAGGPSVFLFPPKPKDTLMISRTPEVTCVVVDVSHEDPEVKFNWYVDGVEVHNAKTKPREEQYNSTYRVVSVLTVLHQDWLNGKEYKCKVSNKGLPSSIEKTISKAKGQPREPQVYTLPPSRDELTKNQVSLTCLVKGFYPSDIAVEWESNGQPENNYKTTPPVLDSDGSFFLYSKLTVDKSRWQQGNVFSCSVMHEALHNHYTQKSLSLSPGK
modifications: biotinylated in the ELISA (sites not given)
notes: domain: Fc; also called Fc alone; Fc-biot control
As to B3, the binding result in assay [5] is given as “no binding”; in assay [6], “no binding (tested: 30 µg/ml)”.
